Reference: article PMC9392717

Test system: His/Xpress-Gemin5 (pcDNA3Xpress-Gemin5)
Assay: pull-down (UV-irradiated HEK293 cells, Ni-NTA, RT-qPCR)
Conditions: EMSA: RNA folded in 100 mM HEPES pH 8.0, 100 mM NaCl, 5.25 mM MgCl2, 37 C; binding in 40 mM Tris-HCl pH 7.5, 250 mM NaCl, 0.1% (w/v) bME, 15 min, room …

## L32-WT-luc mRNA (5'TOP)
  binding signal (fold vs L32-CM6): 5
